According to the supplement of paper PMC10201428:
± gives the standard deviation of the averaged measurements.

system: VchCAST RNA-guided transposition machinery (E. coli BL21(DE3) host, lacZ target); assay: relative integration efficiency (T-LR orientation) vs wild-type transposon end (log2 (normalized fold change)); transposon end mutated: right end (5 bp flank + 75 bp right end); higher = more efficient transposition
Outline: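 A T7-driven effector plasmid encoding a CRISPR array, tniQ-cas8-cas7-cas6 and tnsA-tnsB-tnsC was co-transformed into E. coli BL21(DE3) together with a pUC57 mini-transposon donor holding barcoded pools of 1549 left-end or 1849 right-end variants. Transformants were plated with 0.1 mM IPTG at 37°C for 18 h. Illumina sequencing of PCR-amplified input plasmids and genomic integration junctions gave barcode abundances, and relative integration efficiency is their output/input fold change, normalised to reference barcodes and log-transformed.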

First: ACATTTGTTGATACAACCATTAAATGATAATTCCACCCATAAATTGATAATTATCACACCCAATTTAACTATAACGCTCTGATCATAGTCAGACCAACATTGCTACGACCCGTATTCGCACCGACAC
Second: ACATTTGTTGATACAACCATAAAATGATCATTACACCCATAAATTGATCATTATCACACCCATAAATTGATCTTGCCTCTGATCATAGTCAGACCAACATTGCTACGACCCGTATTCGCACCGACAC
The “relative integration efficiency (log2)” value of the first is higher: 2.34 ± 0.17 for the first, -0.7415 ± 0.00084 for the second.

First: ACATTTGTTGATACAACCATAAAATGATAATTACACCCATAAATTGATAATTATCACACCCATAAATTGATATTGCCTCTTTGTGAGCGGATAACAAGATCATAGTCAGACCAACATGCACCGACAC
Second: ACATTTGTTGATACAACCATAAAATCATAATTACCCCCATCAATTGATAATTATCCCACCCCATTTAACTATAACGCTCTGATCATAGTCAGACCAACATTGCTACGACCCGTATTCGCACCGACAC
The “relative integration efficiency (log2)” value of the first is higher: -0.434 ± 0.17 for the first, -2.4 ± 0.19 for the second.

First: ACATTTGTTGATACAACCATAAAAGGATCATTACACCCATCAATTGATAATTATCACACCCAATTTAACTATAACGCTCTGATCATAGTCAGACCAACATTGCTACGACCCGTATTCGCACCGACAC
Second: ACATTTGTTGATACAACCATAAAATGATAATTAACACCCATAAATTGATAATTATCAACAAACGCCCGGTCGCGGTACTCTGATCATAGTCAGACCAACATTGCTACGACCCGTATTCGCACCGACA
The “relative integration efficiency (log2)” value of the first is lower: -0.241 ± 0.022 for the first, 1.67 ± 0.2 for the second.

Going from “ACATTGGTGGATACAACCATAAAATGATAATTACACCCATAAATGGATCATTATCACACCCAATTTAACTATAACGCTCTGATCATAGTCAGACCAACATTGCTACGACCCGTATTCGCACCGACAC” to “ACATTTGTTGATACAACCCTAAAATGATAATTACACCCATAAATTCATCATTATCACACCCAATTTAACTATAACGCTCTGATCATAGTCAGACCAACATTGCTACGACCCGTATTCGCACCGACAC”, the “relative integration efficiency (log2)” value rises from -6.75 ± 1 to -1.57 ± 0.23.

First: ACATTTGTTGATACAACCATAAAATGATAATTACAACCATATATTGATATCTCTCACAACCATAAGTTGATATTTTCTCTGATCATAGTCAGACCAACATTGCTACGACCCGTATTCGCACCGACAC
Second: CAAAATGTAAAAAAAACCATACGTTGATTTTACCACCCATAAATTGATAATTAAAACAACCATACCTTGAAATTGCTTATAAAGTGTACAACACTTGAGAAAGTTTACTACAGGTATGCACCGACAC
The “relative integration efficiency (log2)” value of the first is higher: -0.141 ± 0.5 for the first, -2.89 ± 0.71 for the second.

Compared with “ACATTTGTTGATACAACCATAAAATGATAATTACACCCATAAATTGATAATTATACACAAACGCCCGGTCGCGGTAAGAGGATCATAGTCAGACCAACATTGCTACGACCCGTATTCGCACCGACAC”, “ACATTTGTGGATACAACCCTAAAATGATAATTACACCCATAAATTCATCATTATCACCCCCAATTTAACTATAACGCTCTGATCATAGTCAGACCAACATTGCTACGACCCGTATTCGCACCGACAC” is lower in “relative integration efficiency (log2)” value: 2.63 ± 0.19 for the first, -1.47 ± 0.4 for the second.

First: ACATTTGTTGATACACCCATAAATTGATATTGCCAACCATATATTGATATCTCTCAGTGGGTATTTAACTATAACGCTCTGATCATAGTCAGACCAACATTGCTACGACCCGTATTCGCACCGACAC
Second: ACATTTGTTGATACAACCATAAAATGATAATTACACCCATAAATTCATTATTATCACACCCAATTTAACTATAACGCTCTGATCATAGTCAGACCAACATTGCTACGACCCGTATTCGCACCGACAC
The “relative integration efficiency (log2)” value of the first is higher: 2.26 ± 0.088 for the first, 0.845 ± 0.28 for the second.

Compared with “ACATTTGTTGATACAACCATAAAATGATAATTAATAATTATTTATAATCAGCAACTTAACCACAAAACACCCATAAATTGATAATTAACAAAACACCCATAAATTGATATTGCCTCTGATCATAGTC”, “ACATTTGTTGATACACCCATAAATTGATATTGCCAACCATAAAGTGATATTTATCACAACCATAAAGTGATATTTACTCTGATCATAGTCAGACCAACATTGCTACGACCCGTATTCGCACCGACAC” is higher in “relative integration efficiency (log2)” value: less than -10 for the first, -0.426 ± 0.4 for the second.

First: CACGTTGTTGATACAACCATAAAATGATAATTACACCCATAAATTGATAATTATCACACCCATAAATTGATATTGCCTCTGATCATAGTCAGACCAACATTGCTACGACCCGTATTCGCACCGACAC
Second: ACATTTGTTGATACCACCATCAAATGGTAATTCCACCCATACATTGATAATTATCACACCCAATTTAACTATAACGCTCTGATCATAGTCAGACCAACATTGCTACGACCCGTATTCGCACCGACAC
The “relative integration efficiency (log2)” value of the first is higher: 0.451 ± 0.3 for the first, -4.54 ± 0.41 for the second.

Going from “ACATTTGTTGATACAACCATAAAATGATAATTACACCCATAAATTGATAATTATCACACCCATAAATTGATATTGCCTCTGATCATAATTGTTATCCGCTCACAATTCCAGTCAGACGCACCGACAC” to “ACATTTGTTGATACAACCATAAAATGATAATTACACCCATAAATTGATAATTATCACACCCATAAATTGATATTGCTCTGATCATAGTCAGACCAACATTGCTACGACCCGTATTCGCACCGACACT”, the “relative integration efficiency (log2)” value falls from 0.885 ± 0.33 to -0.11 ± 0.21.

First: ACATTTGTTGATACAACCATAAAATGATCATTACCCCCATCAATTGATAATTATCACACCCAATTTAACTATAACGCTCTGATCATAGTCAGACCAACATTGCTACGACCCGTATTCGCACCGACAC
Second: ACATTGGTTGATACAACCATAAAATGATAATTACACCCATAAATGGATCATTATCACACCCAATTTAACTATAACGCTCTGATCATAGTCAGACCAACATTGCTACGACCCGTATTCGCACCGACAC
The “relative integration efficiency (log2)” value of the first is higher: -0.291 ± 0.3 for the first, -5.25 ± 0.34 for the second.

Going from “ACATTTGTTGATACACCCATAAATTGATATTGCCACCCATAAATTGATAATTATCACAACCATAAGTTGATATTTTCTCTGATCATAGTCAGACCAACATTGCTACGACCCGTATTCGCACCGACAC” to “ACATTTGTTGATACAACCATAAAATGATAATTACACCCATAAATTGATAATTATCACAAAACGCCCGGTCGCGGTAAGAGGATCATAGTCAGACCAACATTGCTACGACCCGTATTCGCACCGACAC”, the “relative integration efficiency (log2)” value rises from -0.238 ± 0.32 to 2.81 ± 0.094.

For “CAAAATGTAAAAAAAACCATACGTTGATTTTACGAAACCATACGCTGAAATAAAAACACCCATAAATTGATATTGCTTATAAAGTGTACAACACTTGAGAAAGTTTACTACAGGTATGCACCGACAC”, the “relative integration efficiency (log2)” value was less than -10.
